Experimental data published in the supplement of paper PMC9876800.

Test system: peptide library, one residue held at a place counted from the S/T acceptor
Assay: relative phosphorylation of the sub-library (ratio to the mean residue at this position); human; higher = residue favoured
Outline: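 Spots on streptavidin membranes were phosphorimaged and quantified by densitometry to measure phosphorylation of biotinylated degenerate peptide sub-libraries by purified recombinant kinases, human or orthologue constructs. The reactions ran in 384-well plates for 90 min under kinase-specific conditions, with peptides at 50 μM and 50 μM ATP spiked with γ-32P-ATP. Relative sub-library phosphorylation is the ratio to the mean residue at that position.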

Sequence of CSNK1G3, construct: Full length (Q9Y6M4 whole entry, looked up): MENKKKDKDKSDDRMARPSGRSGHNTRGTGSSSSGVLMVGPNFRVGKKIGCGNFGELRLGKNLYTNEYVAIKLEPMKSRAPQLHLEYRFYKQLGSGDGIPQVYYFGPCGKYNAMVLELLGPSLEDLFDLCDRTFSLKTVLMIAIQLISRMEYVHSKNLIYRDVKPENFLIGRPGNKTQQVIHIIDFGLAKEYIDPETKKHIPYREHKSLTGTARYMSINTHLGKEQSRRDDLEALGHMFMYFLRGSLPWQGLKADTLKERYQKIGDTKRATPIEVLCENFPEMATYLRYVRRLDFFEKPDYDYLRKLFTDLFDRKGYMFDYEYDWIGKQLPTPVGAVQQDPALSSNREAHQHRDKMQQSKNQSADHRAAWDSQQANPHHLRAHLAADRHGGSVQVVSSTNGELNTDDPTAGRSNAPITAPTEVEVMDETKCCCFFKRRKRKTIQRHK
Sequence of CSNK2A1, construct: Full length (P68400 whole entry, looked up): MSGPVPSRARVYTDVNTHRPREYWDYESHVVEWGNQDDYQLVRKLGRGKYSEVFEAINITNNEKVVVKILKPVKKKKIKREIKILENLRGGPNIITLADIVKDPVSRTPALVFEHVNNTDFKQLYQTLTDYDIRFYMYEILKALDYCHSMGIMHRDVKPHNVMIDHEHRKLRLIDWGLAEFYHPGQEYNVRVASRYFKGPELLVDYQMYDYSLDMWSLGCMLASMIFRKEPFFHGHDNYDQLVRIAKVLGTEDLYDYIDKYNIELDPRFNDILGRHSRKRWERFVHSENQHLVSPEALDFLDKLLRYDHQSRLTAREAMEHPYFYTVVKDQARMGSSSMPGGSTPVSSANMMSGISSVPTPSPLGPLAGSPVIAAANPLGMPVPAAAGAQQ
Sequence of CSNK1A1L, construct: Full length (Q8N752 whole entry, looked up): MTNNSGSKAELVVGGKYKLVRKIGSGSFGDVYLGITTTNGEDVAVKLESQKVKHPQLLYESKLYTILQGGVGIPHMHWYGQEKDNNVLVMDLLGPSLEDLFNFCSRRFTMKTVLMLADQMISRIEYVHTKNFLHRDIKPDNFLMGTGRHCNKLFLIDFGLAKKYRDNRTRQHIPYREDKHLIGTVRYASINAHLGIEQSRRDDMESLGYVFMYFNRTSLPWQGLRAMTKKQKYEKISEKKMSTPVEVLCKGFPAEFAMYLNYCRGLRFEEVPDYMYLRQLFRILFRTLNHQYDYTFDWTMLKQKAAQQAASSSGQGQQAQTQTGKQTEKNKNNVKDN

CSNK1A1L, construct: Full length (from UniProt Q8N752)
relative phosphorylation
Conditions | at +1 | at +2 | at +3 | at +4 | at -1 | at -2 | at -3 | at -4 | at -5
A fixed | 0.971 | 1.06 | 1.06 | 1.04 | 1.09 | 1.69 | 0.946 | 0.941 | 0.921
D fixed | 0.691 | 0.714 | 0.868 | 0.854 | 0.749 | 0.716 | 1.06 | 0.888 | 0.771
E fixed | 0.871 | 0.578 | 0.9 | 0.871 | 0.977 | 0.991 | 2.26 | 1.1 | 0.78
F fixed | 0.886 | 1.12 | 1.17 | 1.05 | 0.872 | 0.81 | 0.784 | 0.965 | 1.27
G fixed | 0.849 | 0.885 | 1.07 | 0.992 | 1.21 | 0.819 | 0.778 | 0.948 | 0.897
H fixed | 0.744 | 0.98 | 0.899 | 0.858 | 0.896 | 0.748 | 0.734 | 0.933 | 0.985
I fixed | 1.87 | 1.66 | 1.19 | 1.03 | 0.879 | 0.847 | 0.965 | 1.13 | 1.1
K fixed | 0.883 | 1.02 | 0.845 | 1.09 | 1.2 | 1.35 | 1.13 | 1.24 | 1.27
L fixed | 1.19 | 0.964 | 1.07 | 1.11 | 1.01 | 0.903 | 0.811 | 1.08 | 1.09
M fixed | 1.03 | 1.02 | 1.17 | 1.08 | 1.13 | 0.839 | 0.751 | 0.96 | 1.09
N fixed | 0.745 | 0.702 | 0.795 | 0.777 | 0.997 | 0.798 | 0.704 | 0.96 | 0.874
P fixed | 0.719 | 0.705 | 0.904 | 1.1 | 1.02 | 1.19 | 0.741 | 0.873 | 0.874
Q fixed | 0.801 | 0.731 | 0.808 | 0.913 | 0.878 | 0.889 | 0.685 | 0.865 | 0.807
R fixed | 1.25 | 1.03 | 0.801 | 0.897 | 1.54 | 2.1 | 2.08 | 1.15 | 1.18
V fixed | 1.88 | 1.38 | 1.14 | 1.02 | 0.854 | 0.889 | 0.813 | 0.956 | 0.925
W fixed | 0.769 | 1.06 | 1.16 | 1.24 | 0.754 | 0.681 | 0.656 | 0.946 | 0.928
Y fixed | 0.854 | 1.4 | 1.15 | 1.07 | 0.94 | 0.737 | 1.09 | 1.08 | 1.25
pThr fixed | 1.69 | 0.803 | 1.25 | 1.64 | 2.06 | 3.58 | 53.8 | 5.13 | 1.56
pTyr fixed | 1.26 | 2.63 | 3.97 | 2.06 | 1.5 | 1.78 | 2.99 | 4.32 | 1.93

CSNK1G3, construct: Full length (from UniProt Q9Y6M4)
relative phosphorylation
Conditions | at +1 | at +2 | at +3 | at +4 | at -1 | at -2 | at -3 | at -4 | at -5
A fixed | 0.678 | 0.743 | 0.752 | 0.708 | 0.916 | 1.39 | 0.508 | 0.923 | 1.01
D fixed | 0.543 | 0.941 | 2.63 | 1.12 | 0.701 | 1.08 | 5.05 | 1.58 | 1.8
E fixed | 0.611 | 0.607 | 1.46 | 0.928 | 0.788 | 1.27 | 3.58 | 1.78 | 1.62
F fixed | 1.07 | 1.17 | 1.22 | 1.43 | 0.905 | 0.576 | 0.522 | 1.07 | 0.859
G fixed | 0.459 | 0.67 | 0.931 | 1.07 | 0.635 | 0.903 | 0.475 | 0.818 | 0.86
H fixed | 0.841 | 1.44 | 0.901 | 0.991 | 0.949 | 0.716 | 0.548 | 0.898 | 0.988
I fixed | 1.81 | 1.02 | 0.58 | 0.696 | 1.39 | 0.963 | 0.467 | 0.714 | 0.82
K fixed | 0.778 | 0.952 | 0.672 | 0.822 | 1 | 0.832 | 0.652 | 0.763 | 0.896
L fixed | 2.24 | 1.1 | 0.772 | 0.808 | 1.23 | 1.05 | 0.484 | 0.796 | 0.91
M fixed | 1.58 | 0.945 | 0.748 | 0.989 | 1.32 | 0.882 | 0.504 | 0.872 | 0.96
N fixed | 0.721 | 1.06 | 1.05 | 0.947 | 0.781 | 1.57 | 0.645 | 0.801 | 1.04
P fixed | 0.443 | 0.482 | 0.683 | 0.97 | 0.579 | 0.471 | 0.418 | 0.897 | 0.658
Q fixed | 0.843 | 0.864 | 0.869 | 0.879 | 1.1 | 1.26 | 0.528 | 0.788 | 0.79
R fixed | 1.03 | 1.25 | 0.877 | 1.02 | 1.28 | 1.54 | 1.02 | 0.845 | 0.992
V fixed | 1.5 | 0.936 | 0.794 | 0.814 | 1.23 | 1.17 | 0.458 | 0.669 | 0.876
W fixed | 1.01 | 1.23 | 1.11 | 1.48 | 1.22 | 0.715 | 0.581 | 1.69 | 1.05
Y fixed | 0.855 | 1.59 | 0.941 | 1.33 | 0.974 | 0.613 | 0.56 | 1.1 | 0.877
pThr fixed | 0.618 | 0.558 | 1.52 | 2.55 | 0.636 | 4.34 | 144 | 10.2 | 4.37
pTyr fixed | 1.13 | 5.14 | 9.54 | 2.97 | 0.797 | 1.85 | 12.1 | 5.93 | 2.97

CSNK2A1, construct: Full length (from UniProt P68400)
relative phosphorylation
Conditions | at +1 | at +2 | at +3 | at +4 | at -1 | at -2 | at -3 | at -4 | at -5
A fixed | 0.479 | 1.2 | 0.406 | 0.847 | 0.867 | 1.02 | 0.979 | 1.01 | 1.09
D fixed | 9.09 | 3.13 | 2.81 | 2.06 | 3.14 | 1.45 | 1.78 | 1.79 | 1.46
E fixed | 3.33 | 2.03 | 9.11 | 2.6 | 2.33 | 1.37 | 1.53 | 1.56 | 1.2
F fixed | 0.24 | 0.739 | 0.307 | 0.878 | 0.886 | 1.04 | 0.97 | 0.88 | 0.976
G fixed | 0.561 | 0.782 | 0.533 | 1.06 | 0.687 | 0.891 | 1.65 | 1.03 | 0.98
H fixed | 0.333 | 0.993 | 0.347 | 0.75 | 0.829 | 0.968 | 0.907 | 0.895 | 1.08
I fixed | 0.208 | 0.654 | 0.249 | 0.811 | 0.61 | 0.94 | 0.759 | 0.839 | 0.883
K fixed | 0.23 | 0.374 | 0.236 | 0.53 | 0.48 | 0.458 | 0.566 | 0.76 | 0.963
L fixed | 0.237 | 0.499 | 0.246 | 0.64 | 0.926 | 0.693 | 0.702 | 0.892 | 0.726
M fixed | 0.259 | 0.524 | 0.257 | 0.916 | 0.934 | 0.705 | 0.823 | 0.941 | 0.911
N fixed | 0.5 | 1.42 | 0.455 | 0.904 | 0.796 | 0.813 | 1.05 | 1.04 | 1.05
P fixed | 0.232 | 0.543 | 0.412 | 0.597 | 0.541 | 0.778 | 0.853 | 0.807 | 0.751
Q fixed | 0.352 | 0.68 | 0.4 | 0.832 | 0.922 | 0.678 | 0.869 | 0.867 | 0.808
R fixed | 0.221 | 0.426 | 0.258 | 0.553 | 0.435 | 0.589 | 0.657 | 0.87 | 0.943
V fixed | 0.249 | 0.923 | 0.263 | 0.76 | 0.751 | 0.859 | 0.801 | 0.826 | 0.969
W fixed | 0.236 | 1.16 | 0.328 | 1.32 | 0.914 | 1.12 | 0.897 | 0.927 | 1.15
Y fixed | 0.238 | 0.923 | 0.385 | 0.933 | 0.954 | 2.62 | 1.21 | 1.08 | 1.06
pThr fixed | 5.46 | 1.84 | 1.96 | 6.46 | 1.96 | 1.59 | 2.22 | 1.83 | 1.39
pTyr fixed | 0.808 | 2.14 | 4.29 | 3.87 | 3.49 | 2.41 | 2.37 | 1.4 | 1.47
